Experimental data published in patent publication US20220025055A1 (Boehringer Ingelheim, published 2022).
Like-named read-outs stand apart in the source and are kept apart here.

Assays:
[1] = molecular target: T1, human FLT3 (FMS-like tyrosine kinase 3) (human, UniProt P36888 27-993); test: cell-based or functional assay
T1 sequence (looked up): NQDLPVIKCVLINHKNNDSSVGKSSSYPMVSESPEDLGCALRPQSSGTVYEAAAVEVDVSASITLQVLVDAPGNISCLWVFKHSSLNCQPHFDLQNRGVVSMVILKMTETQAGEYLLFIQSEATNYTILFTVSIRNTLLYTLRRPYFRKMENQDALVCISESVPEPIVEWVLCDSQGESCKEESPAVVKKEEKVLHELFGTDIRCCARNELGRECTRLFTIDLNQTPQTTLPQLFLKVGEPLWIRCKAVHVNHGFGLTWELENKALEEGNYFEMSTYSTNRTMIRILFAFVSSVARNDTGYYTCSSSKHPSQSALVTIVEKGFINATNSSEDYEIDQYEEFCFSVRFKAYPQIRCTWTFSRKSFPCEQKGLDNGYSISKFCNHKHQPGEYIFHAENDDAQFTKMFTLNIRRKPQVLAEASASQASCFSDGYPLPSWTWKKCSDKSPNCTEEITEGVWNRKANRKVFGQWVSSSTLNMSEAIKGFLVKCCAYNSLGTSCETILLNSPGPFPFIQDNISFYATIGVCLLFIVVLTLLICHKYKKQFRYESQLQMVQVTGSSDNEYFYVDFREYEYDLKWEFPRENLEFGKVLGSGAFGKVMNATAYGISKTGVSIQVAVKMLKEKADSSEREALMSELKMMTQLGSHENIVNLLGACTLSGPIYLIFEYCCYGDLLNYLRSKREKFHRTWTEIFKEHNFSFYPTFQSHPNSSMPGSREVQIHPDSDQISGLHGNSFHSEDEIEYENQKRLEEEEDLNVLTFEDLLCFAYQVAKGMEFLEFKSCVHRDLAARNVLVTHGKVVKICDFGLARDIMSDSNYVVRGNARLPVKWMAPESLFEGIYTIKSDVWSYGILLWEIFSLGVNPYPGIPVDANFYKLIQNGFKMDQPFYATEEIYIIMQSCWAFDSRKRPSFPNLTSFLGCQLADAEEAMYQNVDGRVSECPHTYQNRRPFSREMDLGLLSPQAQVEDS

[2] = molecular target: T1, human FLT3 (FMS-like tyrosine kinase 3); test: cell-based or functional assay; remark: listed apart in the source
[3] = molecular target: T1, human FLT3 (FMS-like tyrosine kinase 3); test: cell-based or functional assay; remark: listed apart in the source
mouse FLT3 = molecular target: T2, mouse FLT3 (mouse, UniProt Q00342 28-544, limits assumed); test: not described
T2 construct: Named only in one sentence; no assay is described
T2 sequence (looked up): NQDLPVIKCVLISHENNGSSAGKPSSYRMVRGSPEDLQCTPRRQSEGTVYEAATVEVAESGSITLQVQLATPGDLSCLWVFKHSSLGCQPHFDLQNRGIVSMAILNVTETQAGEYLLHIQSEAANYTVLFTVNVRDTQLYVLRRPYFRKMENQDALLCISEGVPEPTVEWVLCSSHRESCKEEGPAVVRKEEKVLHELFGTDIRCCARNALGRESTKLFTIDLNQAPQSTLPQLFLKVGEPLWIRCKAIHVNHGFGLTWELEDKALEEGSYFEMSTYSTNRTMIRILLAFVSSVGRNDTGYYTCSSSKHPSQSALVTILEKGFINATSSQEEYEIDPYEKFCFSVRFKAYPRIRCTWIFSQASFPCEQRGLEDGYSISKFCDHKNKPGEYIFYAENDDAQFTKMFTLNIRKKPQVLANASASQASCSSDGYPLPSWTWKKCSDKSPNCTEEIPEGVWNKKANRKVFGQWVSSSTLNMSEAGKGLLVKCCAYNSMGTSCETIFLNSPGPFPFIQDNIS

[4] = molecular target: T1, human FLT3 (FMS-like tyrosine kinase 3); test: flow cytometry on stably expressing human FLT3-STAT5-Luciferase cells, AF488 anti-human IgG (H+L) detection
Protocol: (§1) Since NB1113 binds to human FLT3, but not mouse FLT3, the binding and functional activity of NB1113 was evaluated in both human and cynomolgus (cyno) FLT3-expressing systems. Stably expressing human and cyno FLT3-STAT5-Luciferase cells were used for both binding and functional assays. The binding of NB1113 to human or cyno FLT3 was assessed by flow cytometry using different concentrations of NB1113 in PBS+2% FBS, followed by detection using AF488 anti-human IgG (H+L) secondary antibody.

cynomolgus FLT3 [5] = molecular target: T3, cynomolgus FLT3 (cynomolgus, UniProt A0A2K5VQ48 27-993); test: flow cytometry on stably expressing cyno FLT3-STAT5-Luciferase cells, AF488 anti-human IgG (H+L) detection
T3 construct: whole, on cells; also called cyno FLT3; monkey FLT3
T3 sequence: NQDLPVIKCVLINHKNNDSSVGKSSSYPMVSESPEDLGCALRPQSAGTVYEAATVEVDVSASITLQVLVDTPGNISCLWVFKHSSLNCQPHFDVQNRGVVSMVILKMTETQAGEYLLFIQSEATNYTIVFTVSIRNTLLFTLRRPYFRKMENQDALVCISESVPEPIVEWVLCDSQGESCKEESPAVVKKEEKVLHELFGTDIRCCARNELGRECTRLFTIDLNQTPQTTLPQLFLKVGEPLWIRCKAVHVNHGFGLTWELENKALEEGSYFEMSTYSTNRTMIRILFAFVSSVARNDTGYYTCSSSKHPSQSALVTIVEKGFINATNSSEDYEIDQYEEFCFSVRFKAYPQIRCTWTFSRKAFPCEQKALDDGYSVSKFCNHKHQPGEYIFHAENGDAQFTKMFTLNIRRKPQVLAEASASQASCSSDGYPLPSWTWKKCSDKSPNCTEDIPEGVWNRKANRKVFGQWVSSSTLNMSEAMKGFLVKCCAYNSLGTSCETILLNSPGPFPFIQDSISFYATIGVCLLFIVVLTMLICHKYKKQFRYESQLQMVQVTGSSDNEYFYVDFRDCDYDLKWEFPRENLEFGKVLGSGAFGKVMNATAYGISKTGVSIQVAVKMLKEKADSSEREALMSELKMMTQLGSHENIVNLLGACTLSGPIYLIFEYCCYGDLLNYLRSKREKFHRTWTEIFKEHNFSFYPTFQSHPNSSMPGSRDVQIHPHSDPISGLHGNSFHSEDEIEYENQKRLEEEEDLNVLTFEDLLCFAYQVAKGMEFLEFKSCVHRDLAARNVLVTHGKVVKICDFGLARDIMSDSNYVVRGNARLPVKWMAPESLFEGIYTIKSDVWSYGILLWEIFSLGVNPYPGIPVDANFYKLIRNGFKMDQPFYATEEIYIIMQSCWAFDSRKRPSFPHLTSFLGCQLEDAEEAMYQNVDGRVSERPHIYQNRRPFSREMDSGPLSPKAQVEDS
Protocol: as §1

cynomolgus FLT3 [6] = molecular target: T3, cynomolgus FLT3; test: cell-based or functional assay
[7] = molecular target: T1, human FLT3 (FMS-like tyrosine kinase 3); test: cell-based or functional assay; remark: listed apart in the source

FLT3 ligand (FLT3L) (from UniProt P49771 27-181)
EC50 of expansion of HLA-DR+CD1c+ cells from primary human bone marrow, 12 days [1]: 0.023 nM

B1: NB1063 (antibody, V domains shown)
VH: EVQLLESGGGLVQPGGSLRLSCAPSGFTFSNYGMAWVRQAPGKGLEWVSSIHSGGGDTYYRDSVKGRFTISRDNSKNTLYLQMNSLRAEDTAVYYCARGRTPTGYYFDHWGQGTMVTVSS
VL: DIQMTQSPSSLSASVGDRVTITCRASEGIHNGLAWYQQKPGKVPKLLIYNANSLHSGVPSRFSGSGSGTDFTLTISSLQPEDVATYFCQQYYDYPLTFGQGTKLEIK
EC50 in AML5 proliferation assay [2]: 0.118 nM

B2: NB1112 (antibody, V domains shown)
VH: EVQLLESGGGLVQPGGSLRLSCAPSGFTFSNYGMAWVRQAPGKGLEWVSSIHSGGGDTYYRDSVKGRFTISRDNSKNTLYLQMNSLRAEDTAVYYCARGRTPTGYYFDHWGQGTMVTVSS
VL: DIQMTQSPSSLSASVGDRVTITCRASEGIHDGLAWYQQKPGKVPKLLIYNANSLHSGVPSRFSGSGSGTDFTLTISSLQPEDVATYFCQQYYDYPLTFGQGTKLEIK
EC50 in AML5 proliferation assay [2]: 0.27 nM

B3: Humanized VH5 x Humanized VL3 (antibody, V domains shown)
VH: EVQLVESGGVVVQPGGSLRLSCAPSGFTFSNYGMAWVRQAPGKGLEWVSSIHSGGGDTYYADSVKGRFTISRDNSKNSLYLQMNSLRTEDTALYYCARGRTPTGYYFDHWGQGTMVTVSS
VL: AIQLTQSPSSLSASVGDRVTITCRASEGIHNGLAWYQQKPGKAPKLLIYNANSLHSRVPSRFSGSGSGTDFTLTISSLQPEDFATYFCQQYYDYPLTFGQGTKLEIK
Single dose STAT5-Luc assay, activity relative to NB1016 (chimeric), antibody at 1 nM [3]: 31%

B4: NB1113 (antibody, V domains shown)
VH: EVQLLESGGGLVQPGGSLRLSCAPSGFTFSNYGMAWVRQAPGKGLEWVSSIHSGGGDTYYRDSVKGRFTISRDNSKNTLYLQMNSLRAEDTAVYYCARGRTPTGYYFDHWGQGTMVTVSS
VL: DIQMTQSPSSLSASVGDRVTITCRASEGIHSGLAWYQQKPGKVPKLLIYNANSLHSGVPSRFSGSGSGTDFTLTISSLQPEDVATYFCQQYYDYPLTFGQGTKLEIK
notes: Light chain variant (N31S in CDR-L1) of humanized NB1063 (VH1 x VL1); The constant regions are not restated for the humanized antibodies; the parent chimera NB1016 is human IgG4PAA (S228P, F234A, L235A) / human kappa; also called NB11113; N31S light chain variant of NB1063
binding result (mouse FLT3): no binding
EC50 [4]: 1.36 nM
EC50 (cynomolgus FLT3 [5]): 0.9 nM
EC50 in cyno FLT3-STAT5-Luciferase reporter assay (cynomolgus FLT3 [6]): 1.6 nM
EC50 in human FLT3-STAT5-Luciferase reporter assay [7]: 1.1 nM
EC50 of expansion of HLA-DR+CD1c+ cells from primary human bone marrow, 12 days [7]: 0.113 nM

B5: NB1114 (antibody, V domains shown)
VH: EVQLLESGGGLVQPGGSLRLSCAPSGFTFSNYGMAWVRQAPGKGLEWVSSIHSGGGDTYYRDSVKGRFTISRDNSKNTLYLQMNSLRAEDTAVYYCARGRTPTGYYFDHWGQGTMVTVSS
VL: DIQMTQSPSSLSASVGDRVTITCRASEGIHTGLAWYQQKPGKVPKLLIYNANSLHSGVPSRFSGSGSGTDFTLTISSLQPEDVATYFCQQYYDYPLTFGQGTKLEIK
EC50 in AML5 proliferation assay [2]: 0.201 nM

B6: NB1115 (antibody, V domains shown)
VH: EVQLLESGGGLVQPGGSLRLSCAPSGFTFSNYGMAWVRQAPGKGLEWVSSIHSGGGDTYYRDSVKGRFTISRDNSKNTLYLQMNSLRAEDTAVYYCARGRTPTGYYFDHWGQGTMVTVSS
VL: DIQMTQSPSSLSASVGDRVTITCRASEGIHLGLAWYQQKPGKVPKLLIYNANSLHSGVPSRFSGSGSGTDFTLTISSLQPEDVATYFCQQYYDYPLTFGQGTKLEIK
EC50 in AML5 proliferation assay [2]: 0.135 nM

B7: Humanized VH5 x Humanized VL2 (antibody, V domains shown)
VH: EVQLVESGGVVVQPGGSLRLSCAPSGFTFSNYGMAWVRQAPGKGLEWVSSIHSGGGDTYYADSVKGRFTISRDNSKNSLYLQMNSLRTEDTALYYCARGRTPTGYYFDHWGQGTMVTVSS
VL: AIQMTQSPSSLSASVGDRVTITCRASEGIHNGLAWYQQKPGKAPKLLIYNANSLHSGVPSRFSGSGSGTDFTLTISSLQPEDFATYYCQQYYDYPLTFGQGTKLEIK
Single dose STAT5-Luc assay, activity relative to NB1016 (chimeric), antibody at 1 nM [3]: 53%
